“Also recorded” adds a separate entry of the source.

Common to all, as to assay type: cell-based, human
Assay [1] has as its system HeLa cells. The assay is described as follows: Calcein AM scrape loading and dye transfer in stably transfected HeLa cells. To be noted: for dye transfer: ratio, rate normalized to untransfected HeLa cells, Calcein AM scrape loading, 10 min, stably transfected HeLa, mean ± SEM. How it is done:
A confluent monolayer of HeLa cells (untransfected and stably transfected, as described above) was grown in DMEM with 10% FBS in coverslip bottom plates (MatTek) and placed in a temperature controlled microincubator (Zeiss). A 10×, 0.4 NA objective was used to collect DIC and GFP images every 5 seconds for 10 minutes without changing media. A pipette loaded with 1 μl Calcein AM (Invitrogen), a gap junction permissive dye with molecular weight 662, −4 charge when intracellular and fluorescent, was used to create a scrape across the monolayer. At least 5 replicate dishes were analyzed on the same day, and WT hCx47 expressing HeLas were grown and assayed as a concurrent control; assays were performed on at least 2 different batches of HeLa cells on different days. Quantitation of the rate of spread was calculated using MetaMorph, by obtaining integrated intensity at the 10th time point, within the first minute of imaging, and then at the endpoint at 10 min, and subtracting the initial intensity from that at the endpoint. Results are reported as mean and SEM, and tested for significance (p<0.05) using an unpaired Student's t-test.
In these mutants, Cx47 appears to concentrate in the ER. Unlike electrophysiologic measurements, dye transfer assays are used to assess GJIC of relatively large molecules. We also found significant differences in GJIC in HeLa cells overexpressing Cx47 lymphedema associated mutations by assessing rates of dye transfer in a conventional scrape assay using stably transfected HeLa cells normalized to rates in untransfected HeLa cells (FIG. 7D; Table 3). […] It is not surprising that the mutants show some differences in GJIC between the electrophysiologic and dye transfer assays given that they are designed to measure different kinds of transport and that Cx channel permeability is now believed to be governed by factors including molecular shape, charge and size, in addition to channel conformation and composition.

Assay [2] relates to HeLa cell pairs. The assay is described as follows: Dual whole cell patch clamp recording of coupling current in transfected HeLa cell pairs. As to conditions: for elect coupling: Table 3 (Example 2), HeLa cell pairs, 100 mV step, mean ± SEM; for electrical coupling / functional channels in HeLa cell pairs (in words): transfected HeLa cell pairs, voltage step protocol −100 to +100 mV. How it is done: Coupling currents were recorded using simultaneous double whole-cell patch clamp recordings from isolated pairs of cells that were in contact with one another (determined visually) as previously described. Briefly, the pipette solution consisted of (mM): 130 CsCl, 10 EGTA, 10 HEPES, 3 Mg-ATP, 2 Na-ATP, 0.5 CaCl2, pH 7.3. The culture was bathed in a solution consisting of (mM): 140 NaCl, 5 HEPES, 5 glucose, 4 KCl, 2 CsCl, 2 CaCl2, 2 pyruvate, 1 BaCl2, pH 7.3. Transfected HeLas undergo electrophysiologic analysis in a blinded manner. Pairs of cells were chosen for study only if both expressed the GFP marker indicative of successful transfections; both stable and transient transfectants were analyzed. Patch pipettes were fabricated from borosilicate glass, and coupling currents were amplified by Axopatch 200A amplifiers, filtered at 1 KHz, and digitized at 5 KHz for subsequent analysis using pClamp software (Axon Instruments/Molecular Devices; Sunnyvale, Calif.). All experiments were carried out at room temperature (22° C.). Coupling current was quantified by measuring the peak current recorded in the pair when the neighboring cell received a 100 mV step membrane potential change (in both positive and negative directions). Step changes in membrane potential were delivered to each cell in the pair in sequence and the average current recorded in the neighboring cell was determined and divided by 100 to generate coupling current expressed in pA/mV. Means±SEM were calculated and statistical significance using a one-way analysis of variance and Tukey's post-hoc test, p<0.05.
Coupling current is quantified by measuring the peak current recorded in the pair when the neighboring cell receives a 100 mV step membrane potential change (in both positive and negative directions). Step changes in membrane potential are delivered to each cell in the pair in sequence and the average current recorded in the neighboring cell determined and divided by 100 to generate coupling current expressed in pA/mV (FIG. 6C). Replicate measurements (n=3-6) are made on at least two different days. […] The untransfected HeLa cell pairs also show minimal channel function, as predicted.
Electrophysiologic characteristics of GJIC were measured between HeLa cell pairs transfected with the mutant constructs (as indicated by EGFP expression) by dual whole cell patch clamp recording. All experiments were carried out in a blinded manner. Coupling current is quantified by measuring the peak current recorded in the pair when the neighboring cell receives a 100 mV step membrane potential change (in both positive and negative directions). Step changes in membrane potential are delivered to each cell in the pair in sequence and the average current recorded in the neighboring cell determined and divided by 100 to generate coupling current expressed in pA/mV. Untransfected HeLa cells and cells transfected with empty vector (i.e., no hCx47) were used as additional controls.
(The patch-clamp technique gives a direct electrical read-out from membranes.)

Assay [3] relates to HeLa cells. In words: Cx47 gap junction plaque formation by immunofluorescent confocal microscopy in transfected HeLa cells. To be noted: near confluent transfected HeLa cells. The method, then: Human neonatal foreskin was collected anonymously as discarded tissue according to an IRB protocol. Samples were collected immediately after harvest in DMEM, then fixed in 2% paraformaldehyde for 2 hrs, then stored in 30% sucrose in 1×PBS overnight for cryosectioning, and sectioned in 6 μm slices at −30° C. Transfected (stable and transient) and untransfected HeLa cells were grown to near confluence in coverslip bottom dishes. All cells were rinsed with PBS and fixed with 2% paraformaldehyde. Subsequently, tissue and HeLa cells were processed similarly: following permeabilization with 0.1% Triton X, cells were blocked with 2% BSA. A human Cx47 antibody (ab) was obtained from the S. Scherer laboratory: polyclonal rabbit against amino acids 344-399 in the cytoplasmic C-terminal tail; we used human CNS tissue and positive oligodendrocyte staining as a positive control and primary antibody delete and rabbit IgG as negative controls (data not shown). Cx47 ab was diluted in 0.5% BSA in a 1:200 ratio, applied to cells and incubated at RT for one hour. Mouse monoclonal Proxl (Chemicon) was used as a lymphatic marker for the foreskin samples. Cells were incubated with the secondary abs (Donkey Anti-Rabbit Cy5 and Donkey Anti-Mouse Cy3; Invitrogen) for one hour at RT and washed; Draq5 was used as a nuclear marker. HeLa images were acquired with an inverted Olympus Fluoview 1000 Confocal Microscope 100× oil, 1.4 NA objective. Foreskin images were acquired on a Zeiss Meta LSM 510 inverted confocal microscope with 40× oil, 1.3 N.A. objective. LECs (primary human microvascular adult dermal lymphatics; Lonza) were grown in fibronectin coated coverslip bottom MatTeks dishes in EGM™-2 MV—Microvascular Endothelial Cell Medium-2 (Lonza Inc.) to approximately 80% confluence, and prepared similarly but a commercially available (AbCam) Cx47 ab, polyclonal rabbit against amino acids 41-70 in the human sequence was used along with Drag 5 nuclear marker and phalloidin to mark f-actin.
Immunofluorescence microscopy determines the presence or absence of Cx47 gap junction plaques when the constructs are transiently expressed in HeLa cells. Cx plaques reflect a physiologic accumulation of Cx channels in the cell membrane between cells (tens to thousands of channels); thus plaques are indicative of normal trafficking and gap junction formation at the cell membrane.
Immunofluorescence microscopy determines the presence or absence of Cx47 gap junction plaques when the constructs are transiently expressed in HeLa cells. A human Cx47 antibody was obtained: polyclonal rabbit against amino acids 344-399 in the cytoplasmic C-terminal tail (Orthmann-Murphy J L, et al. Mol Cell Neurosci 2007; 34:629-41); we used human CNS tissue and positive oligodendrocyte staining as a positive control and primary antibody delete as a negative control (data not shown). Cultured HeLa cells were routinely fixed and stained with the primary antibodies against Cx47, along with a nuclear marker, and transfected cells were identified by their EGFP signal. Plaques were imaged using an Olympus Fluoview 1000 confocal microscope, 100× oil objective.

B1: S45L: Cx47 missense mutant S45L (134C>T), extracellular loop 1, construct expressed in HeLa cells (protein, listed as Homo sapiens)
chain: MSWSFLTRLLEEIHNHSTFVGKVWLTVLVVFRIVLTAVGGEAIYLDEQAKFTCNTRQPGCDNVCYDAFAPLSHVRFWVFQIVVISTPSVMYLGYAVHRLARASEQERRRALRRRPGPRRAPRAHLPPPHAGWPEPADLGEEEPMLGLGEEEEEEETGAAEGAGEEAEEAGAEEACTKAVGADGKAAGTPGPTGQHDGRRRIQREGLMRVYVAQLVARAAFEVAFLVGQYLLYGFEVRPFFPCSRQPCPHVVDCFVSRPTEKTVFLLVMYVVSCLCLLLNLCEMAHLGLGSAQDAVRGRRGPPASAPAPAPRPPPCAFPAAAAGLACPPDYSLVVRAAERARAHDQNLANLALQALRDGAAAGDRDRDSSPCVGLPAASRGPPRAGAPASRTGSATSAGTVGEQGRPGTHERPGAKPRAGSEKGSASSRDGKTTVWI
In the case of B1, in assay [1], the dye transfer is reported as 1.11. In assay [2], the elect coupling was determined as 0.1 pA/mV and the “electrical coupling / functional channels in HeLa cell pairs (in words)” value is “absence of coupling; also recorded: do not exhibit functional channels”. Also, the “Cx47 plaque formation (in words)” value in assay [3] is “absence; also recorded: fail to demonstrate Cx 47 plaques”.

B2: P313L: Cx47 missense mutant P313L (938C>T), C-terminal, construct expressed in HeLa cells (protein, listed as Homo sapiens)
chain: MSWSFLTRLLEEIHNHSTFVGKVWLTVLVVFRIVLTAVGGEAIYSDEQAKFTCNTRQPGCDNVCYDAFAPLSHVRFWVFQIVVISTPSVMYLGYAVHRLARASEQERRRALRRRPGPRRAPRAHLPPPHAGWPEPADLGEEEPMLGLGEEEEEEETGAAEGAGEEAEEAGAEEACTKAVGADGKAAGTPGPTGQHDGRRRIQREGLMRVYVAQLVARAAFEVAFLVGQYLLYGFEVRPFFPCSRQPCPHVVDCFVSRPTEKTVFLLVMYVVSCLCLLLNLCEMAHLGLGSAQDAVRGRRGPPASAPAPAPRPLPCAFPAAAAGLACPPDYSLVVRAAERARAHDQNLANLALQALRDGAAAGDRDRDSSPCVGLPAASRGPPRAGAPASRTGSATSAGTVGEQGRPGTHERPGAKPRAGSEKGSASSRDGKTTVWI
As for B2, in assay [1], the dye transfer is given as 2.10. Further, in assay [2], the elect coupling was found to be 37.6 pA/mV and the “electrical coupling / functional channels in HeLa cell pairs (in words)” value is listed as “well coupled”.

B3: R257C: Cx47 missense mutant R257C (769C>T), extracellular loop 2, construct expressed in HeLa cells (protein, listed as Homo sapiens)
chain: MSWSFLTRLLEEIHNHSTFVGKVWLTVLVVFRIVLTAVGGEAIYSDEQAKFTCNTRQPGCDNVCYDAFAPLSHVRFWVFQIVVISTPSVMYLGYAVHRLARASEQERRRALRRRPGPRRAPRAHLPPPHAGWPEPADLGEEEPMLGLGEEEEEEETGAAEGAGEEAEEAGAEEACTKAVGADGKAAGTPGPTGQHDGRRRIQREGLMRVYVAQLVARAAFEVAFLVGQYLLYGFEVRPFFPCSRQPCPHVVDCFVSCPTEKTVFLLVMYVVSCLCLLLNLCEMAHLGLGSAQDAVRGRRGPPASAPAPAPRPPPCAFPAAAAGLACPPDYSLVVRAAERARAHDQNLANLALQALRDGAAAGDRDRDSSPCVGLPAASRGPPRAGAPASRTGSATSAGTVGEQGRPGTHERPGAKPRAGSEKGSASSRDGKTTVWI
With B3, the dye transfer in assay [1] is listed as 2.56. The “Calcein AM dye transfer compared to WT-hCx47 transfected HeLa cells (in words)” value in assay [1] (stably transfected HeLa cells, scrape assay) is “significantly greater dye transfer”. Besides, in assay [2], the elect coupling came to 0.0 pA/mV and the “electrical coupling / functional channels in HeLa cell pairs (in words)” value is listed as “absence of coupling; also recorded: do not exhibit functional channels”. In assay [3], the “Cx47 plaque formation (in words)” value is recorded as “absence; also recorded: fail to demonstrate Cx 47 plaques”.

The values above are taken from US9260754B2, “Connexin mutation detection for lymphatic variation and disease” (University of Pittsburgh—Of the Commonwealth System of …, priority 2010, dated 2016).
